Experiments:
[1] = molecular target: T1, human CD81 on CD81-expressing cells (Jurkat E6.1, human PBMC, Ramos) (human, UniProt P60033 1-236); assay: FMAT on CD81-expressing and non-expressing cells
T1 construct: endogenous CD81 of the cells; also called wild type human CD81
T1 sequence: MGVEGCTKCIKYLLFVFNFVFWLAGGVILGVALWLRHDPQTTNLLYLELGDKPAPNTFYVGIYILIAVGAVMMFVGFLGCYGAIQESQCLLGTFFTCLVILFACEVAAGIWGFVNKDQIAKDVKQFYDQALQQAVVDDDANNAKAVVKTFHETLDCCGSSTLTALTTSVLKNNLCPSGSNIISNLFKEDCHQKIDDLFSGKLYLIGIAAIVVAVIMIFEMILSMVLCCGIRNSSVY
Excerpt: A complete human antibody library n-CoDeR (Nature Biotechnol. 18: 852-856, 2000; WO98/32845) was screened for specific binding with human CD81, using human CD81 protein and human CD9 protein having a homology with CD81, or human CD81-expressing and -non-expressing cells to obtain human antibody fragments (scFv) specifically binding with human CD81. First, phages bound to biotinylated CD81 protein in the presence of competitive CD9 protein were recovered using streptoavidin-labeled magnetic beads. Unbound phages were washed out and the bound phages were eluted by trypsin treatment. Panning was carried out three times, and the selected phage library was expressed as an antibody fragment in E. coli. […] FMAT is performed by adding antibody fragments to the cells immobilized on the wells of 384-well culture plate, and detecting its binding using a fluorescent-labeled anti-scFv antibody. As a result of the screening, two human CD81-specific human antibody fragments were selected. The nucleotide sequences (scFv-002-A07: SEQ ID NO:33, scFv-005-001: SEQ ID NO:35) and the deduced amino acid sequences (scFv-002-A07: SEQ ID NO:34, scFv-005-001: SEQ ID NO:36) of these fragments were determined by sequencing.

human CD81 mutant V135A = molecular target: T2, human CD81 mutant V135A (human, UniProt P60033 1-236, limits assumed); assay: ELISA
T2 construct: as m30; not shown: C-terminal V5 and 6xHis tags
T2 sequence: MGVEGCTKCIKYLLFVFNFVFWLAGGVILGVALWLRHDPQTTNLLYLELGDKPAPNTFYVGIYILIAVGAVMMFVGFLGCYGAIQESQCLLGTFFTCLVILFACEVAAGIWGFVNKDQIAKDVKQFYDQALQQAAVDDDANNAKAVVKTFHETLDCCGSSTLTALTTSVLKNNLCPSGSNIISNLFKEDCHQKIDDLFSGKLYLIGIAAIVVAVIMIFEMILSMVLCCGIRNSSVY

human CD81 mutant A164T = molecular target: T3, human CD81 mutant A164T (human, UniProt P60033 1-236, limits assumed); assay: ELISA
T3 construct: as m30; not shown: C-terminal V5 and 6xHis tags
T3 sequence: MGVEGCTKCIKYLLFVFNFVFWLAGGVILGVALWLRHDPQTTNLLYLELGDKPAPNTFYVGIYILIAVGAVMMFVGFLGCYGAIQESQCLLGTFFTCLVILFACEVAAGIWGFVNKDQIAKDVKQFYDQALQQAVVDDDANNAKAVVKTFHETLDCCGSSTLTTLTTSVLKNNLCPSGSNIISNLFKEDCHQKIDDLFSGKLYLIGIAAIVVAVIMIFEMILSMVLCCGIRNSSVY

human CD81 mutant L165A = molecular target: T4, human CD81 mutant L165A (human, UniProt P60033 1-236, limits assumed); assay: ELISA
T4 construct: as m30; not shown: C-terminal V5 and 6xHis tags
T4 sequence: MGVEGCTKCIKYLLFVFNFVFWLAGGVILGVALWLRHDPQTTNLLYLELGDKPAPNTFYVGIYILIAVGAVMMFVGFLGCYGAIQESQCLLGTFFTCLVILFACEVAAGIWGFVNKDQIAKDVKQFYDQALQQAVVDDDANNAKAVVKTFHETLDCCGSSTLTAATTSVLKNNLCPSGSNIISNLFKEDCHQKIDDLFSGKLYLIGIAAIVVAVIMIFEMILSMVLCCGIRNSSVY

human CD81 mutant S168A = molecular target: T5, human CD81 mutant S168A (human, UniProt P60033 1-236, limits assumed); assay: ELISA
T5 construct: as m30; not shown: C-terminal V5 and 6xHis tags
T5 sequence: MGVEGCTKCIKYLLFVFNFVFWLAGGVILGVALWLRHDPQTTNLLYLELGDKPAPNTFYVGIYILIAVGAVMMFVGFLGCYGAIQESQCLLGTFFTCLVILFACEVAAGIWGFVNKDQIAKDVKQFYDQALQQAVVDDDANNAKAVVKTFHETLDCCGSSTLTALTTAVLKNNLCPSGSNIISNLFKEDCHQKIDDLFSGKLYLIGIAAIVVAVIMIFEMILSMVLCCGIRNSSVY

human CD81 mutant V169A = molecular target: T6, human CD81 mutant V169A (human, UniProt P60033 1-236, limits assumed); assay: ELISA
T6 construct: as m30; not shown: C-terminal V5 and 6xHis tags
T6 sequence: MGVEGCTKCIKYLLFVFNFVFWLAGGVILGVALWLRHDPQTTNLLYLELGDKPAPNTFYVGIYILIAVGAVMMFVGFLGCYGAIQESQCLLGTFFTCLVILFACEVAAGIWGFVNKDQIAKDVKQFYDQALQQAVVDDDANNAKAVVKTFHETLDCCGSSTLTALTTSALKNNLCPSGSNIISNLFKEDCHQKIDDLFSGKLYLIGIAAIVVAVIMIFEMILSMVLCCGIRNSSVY

human CD81 mutant I194A = molecular target: T7, human CD81 mutant I194A (human, UniProt P60033 1-236, limits assumed); assay: ELISA
T7 construct: as m30; not shown: C-terminal V5 and 6xHis tags
T7 sequence: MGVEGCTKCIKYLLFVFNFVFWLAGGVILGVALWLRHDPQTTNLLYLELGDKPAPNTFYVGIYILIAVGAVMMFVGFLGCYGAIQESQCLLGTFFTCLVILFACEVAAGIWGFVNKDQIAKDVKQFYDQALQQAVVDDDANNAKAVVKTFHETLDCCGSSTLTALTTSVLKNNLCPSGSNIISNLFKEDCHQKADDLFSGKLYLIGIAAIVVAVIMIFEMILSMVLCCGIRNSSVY

human CD81 mutant A164V = molecular target: T8, human CD81 mutant A164V (human, UniProt P60033 1-236, limits assumed); assay: ELISA
T8 construct: as m30; not shown: C-terminal V5 and 6xHis tags
T8 sequence: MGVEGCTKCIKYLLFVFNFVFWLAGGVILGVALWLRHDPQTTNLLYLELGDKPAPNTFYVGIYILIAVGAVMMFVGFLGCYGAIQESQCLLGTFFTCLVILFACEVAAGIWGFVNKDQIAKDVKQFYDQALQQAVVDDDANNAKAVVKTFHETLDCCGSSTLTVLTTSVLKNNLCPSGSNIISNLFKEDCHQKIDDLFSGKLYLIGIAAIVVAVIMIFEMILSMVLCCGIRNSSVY

human CD81 mutant S168T = molecular target: T9, human CD81 mutant S168T (human, UniProt P60033 1-236, limits assumed); assay: ELISA
T9 construct: as m30; not shown: C-terminal V5 and 6xHis tags
T9 sequence: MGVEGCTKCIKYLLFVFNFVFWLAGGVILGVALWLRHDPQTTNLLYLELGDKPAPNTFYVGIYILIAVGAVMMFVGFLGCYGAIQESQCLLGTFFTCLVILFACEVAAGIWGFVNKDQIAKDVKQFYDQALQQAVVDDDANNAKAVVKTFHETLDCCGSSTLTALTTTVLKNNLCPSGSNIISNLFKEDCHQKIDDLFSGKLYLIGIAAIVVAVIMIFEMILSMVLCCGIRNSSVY

human CD81 mutant V169L = molecular target: T10, human CD81 mutant V169L (human, UniProt P60033 1-236, limits assumed); assay: ELISA
T10 construct: as m30; not shown: C-terminal V5 and 6xHis tags
T10 sequence: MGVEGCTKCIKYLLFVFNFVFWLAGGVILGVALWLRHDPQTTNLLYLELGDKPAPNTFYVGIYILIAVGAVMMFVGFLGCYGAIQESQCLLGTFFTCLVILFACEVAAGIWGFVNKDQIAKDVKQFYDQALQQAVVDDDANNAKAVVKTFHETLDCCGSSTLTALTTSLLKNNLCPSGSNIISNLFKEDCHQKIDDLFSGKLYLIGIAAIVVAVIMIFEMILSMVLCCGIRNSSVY

[2] = molecular target: T1, human CD81 on CD81-expressing cells …; assay: cell-based or functional assay
human CD81 mutant N172A = molecular target: T11, human CD81 mutant N172A (human, UniProt P60033 1-236, limits assumed); assay: ELISA
T11 construct: as m30; not shown: C-terminal V5 and 6xHis tags
T11 sequence: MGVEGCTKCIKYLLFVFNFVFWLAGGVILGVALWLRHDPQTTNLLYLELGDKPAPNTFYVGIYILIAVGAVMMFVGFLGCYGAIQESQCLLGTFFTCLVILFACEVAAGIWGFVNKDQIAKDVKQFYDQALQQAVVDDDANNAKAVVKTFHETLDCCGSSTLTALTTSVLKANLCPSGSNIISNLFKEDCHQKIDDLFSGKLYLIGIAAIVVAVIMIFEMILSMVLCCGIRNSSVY

B1: scFv-002-A07 (scFv)
scFv: EVQLLESGGGLVQPGGSLRLSCAASGFTFSSNYMSWVRQAPGKGLEWVSYISSSSTYTDYADSVKGRFTISRDNSKNTLYLQMNSLRAEDTAVYYCARYSYGRDNFDYWGQGTLVTVSSGGGGSGGGGSGGGGSQSVLTQPPSASGTPGQRVTISCTGSTSNIGAGYDTHWYQQLPGTAPKLLIYGNSNRPSGVPDRFSGSKSGTSASLAISGLRSEDEADYYCQSYDTNLSVWVFGGGTKLTVLGEQKLISEEDLSGSAAAHHHHHH
notes: antibody fragment from the n-CoDeR library, expressed in E. coli
B1: binds [1].

B2: 002-F05 (antibody, human IgG4 S228P, lambda, V domains shown)
VH: EVQLLESGGGLVQPGGSLRLSCAASGFTFSSNYMSWVRQAPGKGLEWVSYISSSSTYTDYADSVKGRFTISRDNSKNTLYLQMNSLRAEDTAVYYCARYSYGRDDFDYWGQGTLVTVSS
VL: QSVLTQPASASGTPGQRVTISCTGSTSNIGAGYDTHWYQQLPGTAPKLLIYGNSNRPSGVPDRFSGSKSGTSASLAISGLRSEDEADYYCQSYDTNLNVWVFGGGTKLTVLG
notes: IgG4 S228P
For B2, the relative binding affinity (human CD81 mutant V135A) was less than 20%, the relative binding affinity (human CD81 mutant A164T) was less than 20% and the relative binding affinity (human CD81 mutant L165A) was less than 20%. For the same binder, the relative binding affinity (human CD81 mutant S168A) was less than 20%, the relative binding affinity (human CD81 mutant V169A) was less than 20% and the relative binding affinity (human CD81 mutant I194A) was less than 20%. It also gave a relative binding affinity (human CD81 mutant A164V) of less than 20%, a relative binding affinity (human CD81 mutant S168T) of less than 20% and a relative binding affinity (human CD81 mutant V169L) of less than 20%. The “Jurkat chemotaxis (% of control IgG4) at 0.001 µg/mL” value [2] was 102%, the “Jurkat chemotaxis (% of control IgG4) at 0.01 µg/mL” value [2] was 79% and the “Jurkat chemotaxis (% of control IgG4) at 0.1 µg/mL” value [2] was 27%. For the same binder, the “Jurkat chemotaxis (% of control IgG4) at 1 µg/mL” value [2] was 5% and the “Jurkat chemotaxis (% of control IgG4) at 10 µg/mL” value [2] was 7%.

B3: 003-A10 (antibody, human IgG4 S228P, lambda, V domains shown)
VH: EVQLLESGGGLVQPGGSLRLSCAASGFTFSSNYMSWVRQAPGKGLEWVSYISSSSTYTDYADSVKGRFTISRDNSKNTLYLQMNSLRAEDTAVYYCARYSYGRDTFDYWGQGTLVTVSS
VL: QSVLTQPFSASGTPGQRVTISCTGSTSNIGAGYDTHWYQQLPGTAPKLLIYGNSNRPSGVPDRFSGSKSGTSASLAISGLRSEDEADYYCQSYDTNLSVWVFGGGTKLTVLG
notes: IgG4 S228P
In the case of B3, the relative binding affinity (human CD81 mutant V169A) is reported as less than 20%, the relative binding affinity (human CD81 mutant N172A) is reported as less than 20% and the “Jurkat chemotaxis (% of control IgG4) at 0.001 µg/mL” value [2] is reported as 104%. The “Jurkat chemotaxis (% of control IgG4) at 0.01 µg/mL” value [2] was 93%, the “Jurkat chemotaxis (% of control IgG4) at 0.1 µg/mL” value [2] was 15% and the “Jurkat chemotaxis (% of control IgG4) at 1 µg/mL” value [2] was 3%. For the same binder, the “Jurkat chemotaxis (% of control IgG4) at 10 µg/mL” value [2] was 3%.

Reference: patent publication US20150139990A1 (DAINIPPON SUMITOMO PHARMA, published 2015)
